According to patent US20100322938A1 (COMPUGEN, published 2010):

Target: T1, CGEN-CL1 peptide FYFWMNGDRIDSLLENDRQQT [SEQ ID NO: 1] (human, acetylated at its N-terminus; amidated at its C-terminus)
T1 construct: Made by solid-phase synthesis (Pepscan); molecular weight 2690.1
T1 peptide: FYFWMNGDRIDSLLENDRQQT
Experiment: SPR competition (BIAcore), peptides preincubated 30 min at 10 uM each, injected over immobilized clusterin
Procedure: Peptide-protein interaction was analyzed using surface plasmon resonance. Analysis of the interaction between CGEN-CL1 [SEQ ID NO:1] and recombinant human clusterin (Biovendor, Modrice, Czech republic cat no: RD172034100) was conducted using the BIAcore biosensor (Pharmacia Biosensor, Uppsala, Sweden). Clusterin was immobilized directly to a CM5 sensor chip (2000 resonance units (RU)). Solution containing either 10 μM of CGEN-CL1 [SEQ ID NO:1] peptide or a mixture of CGEN-CL1 and its partner helix (SEQ ID NO:5), 10 μM each, preincubated for 30 minutes at room temperature, was injected to the BIAcore. As a background, the solutions were also injected onto an empty flow cell with no immobilized ligand and the binding levels achieved were subtracted. Data was analyzed using BIAevaluation software.

B1: partner helix peptide RLTRKYNELLKSYQWKMLNTSS [SEQ ID NO: 5] (peptide)
peptide: Ac-RLTRKYNELLKSYQWKMLNTSS-NH2
notes: Made by solid-phase synthesis (Pepscan); molecular weight 2760.2; also called helix partner; counterpart helix peptide
binding result: binds
